From paper PMC3177201

Tests used:
Prp24 oRRM4 [1] = biological target: T1, Prp24 oRRM4 (Saccharomyces cerevisiae, UniProt P49960 292-400); assay: fluorescence anisotropy
T1 sequence: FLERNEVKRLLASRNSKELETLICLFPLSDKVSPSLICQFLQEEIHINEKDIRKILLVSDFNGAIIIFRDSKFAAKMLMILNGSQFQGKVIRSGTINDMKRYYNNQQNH

Prp24 oRRM4 [2] = biological target: T1, Prp24 oRRM4; assay: fluorescence anisotropy; remark: listed apart in the source

B1: U2 nt 1-51, 5'-FITC (ssRNA)
RNA: ACGAAUCUCUUUGCCUUUUGGCUUAGAUCAAGUGUAGUAUCUGUUCUUUUC
B1: binds (Prp24 oRRM4 [1]).

AGAGAUGAUCAGCAGUUCCCCUGCAUAAGGAUGAACCGUU (structured_RNA) [U6 nt 49-88, 5'-Cy5] showed a Kd (Prp24 oRRM4 [2]) of 3.1 µM.
